In publication PMC9636267 (2022):
Numbering of substitutions follows the chain as printed. Read-outs that look alike come from different tables or passages of the source.

T1: HCoV-229E S ectodomain (17–1115 aa), 229E S trimer (human coronavirus 229E, UniProt P15423 17-1115)
T1 chain: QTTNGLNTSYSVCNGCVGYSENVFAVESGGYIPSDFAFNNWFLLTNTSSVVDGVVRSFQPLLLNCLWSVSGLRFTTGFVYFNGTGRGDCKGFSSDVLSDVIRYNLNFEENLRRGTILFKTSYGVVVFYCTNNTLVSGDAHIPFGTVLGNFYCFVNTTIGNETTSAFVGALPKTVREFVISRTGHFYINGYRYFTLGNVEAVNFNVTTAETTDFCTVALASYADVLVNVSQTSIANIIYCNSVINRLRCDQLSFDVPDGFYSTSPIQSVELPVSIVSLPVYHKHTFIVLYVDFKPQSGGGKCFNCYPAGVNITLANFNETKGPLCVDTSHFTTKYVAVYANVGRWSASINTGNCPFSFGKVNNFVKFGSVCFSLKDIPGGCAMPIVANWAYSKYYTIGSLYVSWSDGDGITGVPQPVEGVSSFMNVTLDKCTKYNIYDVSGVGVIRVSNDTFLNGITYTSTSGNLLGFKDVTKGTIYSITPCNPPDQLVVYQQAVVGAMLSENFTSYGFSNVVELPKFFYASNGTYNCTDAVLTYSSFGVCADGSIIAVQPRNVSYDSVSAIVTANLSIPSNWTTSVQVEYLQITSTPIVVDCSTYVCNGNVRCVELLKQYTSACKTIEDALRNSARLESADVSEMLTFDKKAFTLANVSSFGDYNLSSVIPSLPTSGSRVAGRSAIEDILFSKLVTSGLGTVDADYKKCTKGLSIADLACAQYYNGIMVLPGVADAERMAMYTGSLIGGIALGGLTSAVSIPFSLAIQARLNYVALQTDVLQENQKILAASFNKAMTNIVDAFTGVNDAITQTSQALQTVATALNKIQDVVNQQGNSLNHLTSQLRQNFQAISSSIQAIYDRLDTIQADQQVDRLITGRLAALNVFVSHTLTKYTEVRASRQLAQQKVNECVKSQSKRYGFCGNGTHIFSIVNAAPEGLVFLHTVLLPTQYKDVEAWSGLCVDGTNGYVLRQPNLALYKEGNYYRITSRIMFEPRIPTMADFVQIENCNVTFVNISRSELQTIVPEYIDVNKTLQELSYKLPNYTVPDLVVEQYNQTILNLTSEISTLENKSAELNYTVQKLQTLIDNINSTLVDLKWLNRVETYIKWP

T2: HCoV-229E S1 subunit (17–560 aa) (human coronavirus 229E, UniProt P15423 17-560)
T2 chain: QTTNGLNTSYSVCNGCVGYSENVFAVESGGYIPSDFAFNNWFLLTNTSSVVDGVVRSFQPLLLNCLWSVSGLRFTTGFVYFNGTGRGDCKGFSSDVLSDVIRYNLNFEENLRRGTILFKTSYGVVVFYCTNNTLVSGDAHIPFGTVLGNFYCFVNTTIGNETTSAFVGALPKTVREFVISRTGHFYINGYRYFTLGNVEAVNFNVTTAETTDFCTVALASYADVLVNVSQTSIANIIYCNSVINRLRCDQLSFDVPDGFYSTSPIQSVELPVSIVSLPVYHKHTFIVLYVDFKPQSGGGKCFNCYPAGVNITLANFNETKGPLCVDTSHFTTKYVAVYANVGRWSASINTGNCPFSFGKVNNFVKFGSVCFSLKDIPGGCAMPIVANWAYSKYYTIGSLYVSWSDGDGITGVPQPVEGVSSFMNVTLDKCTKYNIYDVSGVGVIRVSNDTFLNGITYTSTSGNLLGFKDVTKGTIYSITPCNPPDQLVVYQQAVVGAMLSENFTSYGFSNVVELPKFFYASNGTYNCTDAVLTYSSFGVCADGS

T3: HCoV-229E NTD (17–265 aa) (human coronavirus 229E, UniProt P15423 17-265)
T3 chain: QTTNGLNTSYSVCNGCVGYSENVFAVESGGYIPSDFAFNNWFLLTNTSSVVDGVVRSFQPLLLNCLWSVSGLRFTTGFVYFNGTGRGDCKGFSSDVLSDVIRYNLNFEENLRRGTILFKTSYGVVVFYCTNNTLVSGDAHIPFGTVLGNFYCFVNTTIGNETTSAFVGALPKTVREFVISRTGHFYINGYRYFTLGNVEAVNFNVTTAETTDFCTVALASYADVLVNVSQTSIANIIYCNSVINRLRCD

T4: HCoV-NL63 S ectodomain (16–1291 aa) (human coronavirus NL63, UniProt Q6Q1S2 16-1291)
T4 chain: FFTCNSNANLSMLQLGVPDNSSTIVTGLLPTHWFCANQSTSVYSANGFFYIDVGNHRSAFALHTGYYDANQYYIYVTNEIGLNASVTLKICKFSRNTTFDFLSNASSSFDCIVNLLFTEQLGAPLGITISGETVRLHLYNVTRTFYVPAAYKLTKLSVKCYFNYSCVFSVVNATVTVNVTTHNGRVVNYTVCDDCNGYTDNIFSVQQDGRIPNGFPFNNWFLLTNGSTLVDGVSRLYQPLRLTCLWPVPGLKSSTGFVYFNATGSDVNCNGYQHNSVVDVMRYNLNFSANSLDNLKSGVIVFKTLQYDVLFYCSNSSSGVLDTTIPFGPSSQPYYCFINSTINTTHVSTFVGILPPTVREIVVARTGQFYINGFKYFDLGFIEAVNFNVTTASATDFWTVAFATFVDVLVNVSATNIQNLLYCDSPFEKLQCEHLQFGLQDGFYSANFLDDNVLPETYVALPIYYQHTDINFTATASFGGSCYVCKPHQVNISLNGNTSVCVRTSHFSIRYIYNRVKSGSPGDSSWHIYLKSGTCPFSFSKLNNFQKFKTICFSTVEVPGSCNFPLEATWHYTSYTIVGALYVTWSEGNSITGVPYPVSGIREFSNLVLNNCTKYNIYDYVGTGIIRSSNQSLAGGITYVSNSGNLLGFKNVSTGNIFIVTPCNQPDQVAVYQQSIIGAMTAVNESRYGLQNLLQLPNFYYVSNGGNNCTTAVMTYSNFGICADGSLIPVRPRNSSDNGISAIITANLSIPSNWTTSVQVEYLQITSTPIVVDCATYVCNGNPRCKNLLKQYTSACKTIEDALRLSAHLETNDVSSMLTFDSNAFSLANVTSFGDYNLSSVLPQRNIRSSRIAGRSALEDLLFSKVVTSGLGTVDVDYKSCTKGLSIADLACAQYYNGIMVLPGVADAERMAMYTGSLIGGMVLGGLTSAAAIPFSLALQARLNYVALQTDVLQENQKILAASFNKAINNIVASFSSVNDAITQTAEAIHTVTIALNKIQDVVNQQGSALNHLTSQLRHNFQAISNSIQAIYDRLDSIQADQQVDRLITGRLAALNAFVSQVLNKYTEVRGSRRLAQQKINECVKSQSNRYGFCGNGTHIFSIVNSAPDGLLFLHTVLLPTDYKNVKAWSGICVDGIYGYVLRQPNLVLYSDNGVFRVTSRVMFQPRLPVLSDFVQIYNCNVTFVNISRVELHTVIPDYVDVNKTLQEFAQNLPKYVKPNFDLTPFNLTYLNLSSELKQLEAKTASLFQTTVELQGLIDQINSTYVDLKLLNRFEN

B1: Fab B09 (Fab, V domains shown)
VH: EVQLVESGGGLVQPGGSLRLSCAASGFNLSYSSIHWVRQAPGKGLEWVAYIYPYYGSTYYADSVKGRFTISADTSKNTAYLQMNSLRAEDTAVYYCARSWSPSSSYPGYGGLDYWGQGTLVTVSS
VL: DIQMTQSPSSLSASVGDRVTITCRASQSVSSAVAWYQQKPGKAPKLLIYSASSLYSGVPSRFSGSRSGTDFTLTISSLQPEDFATYYCQQSWSYYGSLFTFGQGTKVEIK
B2: Fab B10 (Fab, V domains shown)
VH: EVQLVESGGGLVQPGGSLRLSCAASGFNLSSSSMHWVRQAPGKGLEWVAYIYPSYSSTYYADSVKGRFTISADTSKNTAYLQMNSLRAEDTAVYYCARASGHFWAYGFDYWGQGTLVTVSS
VL: DIQMTQSPSSLSASVGDRVTITCRASQSVSSAVAWYQQKPGKAPKLLIYSASSLYSGVPSRFSGSRSGTDFTLTISSLQPEDFATYYCQQYSYSGPFTFGQGTKVEIK
B3: Fab D12 (Fab, V domains shown)
VH: EVQLVESGGGLVQPGGSLRLSCAASGFNLSSYSMHWVRQAPGKGLEWVAYISPYYSYTSYADSVKGRFTISADTSKNTAYLQMNSLRAEDTAVYYCARVWYHSYPGWVPWGSWAFDYWGQGTLVTVSS
VL: DIQMTQSPSSLSASVGDRVTITCRASQSVSSAVAWYQQKPGKAPKLLIYSASSLYSGVPSRFSGSRSGTDFTLTISSLQPEDFATYYCQQAYYSPITFGQGTKVEIK
B4: Fab A10 (Fab, V domains shown)
VH: EVQLVESGGGLVQPGGSLRLSCAASGFNISSYYMHWVRQAPGKGLEWVAYISPYSGYTYYADSVKGRFTISADTSKNTAYLQMNSLRAEDTAVYYCARAHYPYHGSYWGLDYWGQGTLVTVSS
VL: B3 VL with Y92G, S94V
B5: Fab D04 (Fab, V domains shown)
VH: EVQLVESGGGLVQPGGSLRLSCAASGFNLSSYYIHWVRQAPGKGLEWVASISPYSSSTYYADSVKGRFTISADTSKNTAYLQMNSLRAEDTAVYYCARWYSPSYGWYWPYASGAGGLDYWGQGTLVTVSS
VL: B2 VL with Y91S, Y93P, S94H, G95Y, P96L, F97I
B6: Fab A01 (Fab, V domains shown)
VH: EVQLVESGGGLVQPGGSLRLSCAASGFNISSSYIHWVRQAPGKGLEWVASIYSYYSSTSYADSVKGRFTISADTSKNTAYLQMNSLRAEDTAVYYCARGGYAFYGYGSPHSWYALDYWGQGTLVTVSS
VL: B1 VL with S91W, S93P, Y94G, Y95S, G96W, S97G, L98P, F99I
B7: Fab A11 (Fab, V domains shown)
VH: EVQLVESGGGLVQPGGSLRLSCAASGFNIYSSYIHWVRQAPGKGLEWVASISSSYGYTYYADSVKGRFTISADTSKNTAYLQMNSLRAEDTAVYYCARGHGWAYVWSSYYPAGAFALDYWGQGTLVTVSS
VL: DIQMTQSPSSLSASVGDRVTITCRASQSVSSAVAWYQQKPGKAPKLLIYSASSLYSGVPSRFSGSRSGTDFTLTISSLQPEDFATYYCQQSYALITFGQGTKVEIK

What was measured:
Test in all cases: SPR
[1] = target: T1, HCoV-229E S ectodomain (17–1115 aa), …
[2] = target: T2, HCoV-229E S1 subunit (17–560 aa)
[3] = target: T3, HCoV-229E NTD (17–265 aa)
[4] = target: T2, HCoV-229E S1 subunit (17–560 aa)
[5] = target: T1, HCoV-229E S ectodomain (17–1115 aa), …
[6] = target: T3, HCoV-229E NTD (17–265 aa)
[7] = target: T4, HCoV-NL63 S ectodomain (16–1291 aa)
[8] = target: T4, HCoV-NL63 S ectodomain (16–1291 aa)

Row | Binder | koff [1] [s⁻¹] | koff [2] [s⁻¹] | koff [3] [s⁻¹] | Kd [4] [nM] | Kd [5] [nM] | Kd [6] [nM] | Kd [7] [nM] | Kd [8] [nM]
1 | B1 | 0.00015 | 0.00064 | 0.00037 | 32 | 33 | 235 |  | 
2 | B2 | 0.00044 | 0.00031 | 0.00069 | 2.3 | 2.5 | 5.5 |  | 
3 | B3 | 0.0018 | 0.00086 | 0.00043 | 1.1 | 3.9 | 3.2 | 8400 | 3800
4 | B4 | 0.00021 | 0.00083 | 0.0015 | 3.6 | 6.3 | 4.6 |  | 
5 | B5 | 0.0012 | 0.0012 | 0.0026 | 2 | 2 | 7.7 |  | 
6 | B6 | 0.0017 | 0.00068 | 0.00076 | 17 | 32 | 31 |  | 
7 | B7 | 0.0034 | 0.0018 | 0.004 | 3.2 | 9.4 | 8.8 |  | 
